This series deals with the molecule itself. Put plainly: crystal structure.

1 protein from publication doi:10.1101/2020.10.16.343392 (bioRxiv, 2020) can be followed below.

The stoichiometry N is a count of units in the complex or per binding partner.

B1: EfgA (enhanced formaldehyde growth protein A) from Methylorubrum extorquens PA1 (natural protein)
chain: MHVTIEQAEKAIQAARAKAVELGTQMCIAIVDSGGNLKAFHRMDGAWVGSIDIAQKKAKTAVFFGMKTGQIGALSQPGGSLYGIEHSNQGLITFPGGIPIVDADGEMSGAIGVSGSSVENDDAVALAGASAIGDTELPDHPWRT
As to B1, the “stoichiometry N” value was 4.
